# Reference: the nanobody polyreactivity screen of Harvey et al. (2022)
# Experiment: yeast display, Sf9 membrane polyspecificity reagent, FACS + sequencing; frameworks hold sequencing errors
# Outline: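 Nanobodies from a synthetic yeast display library (Saccharomyces cerevisiae BJ5465), induced 36–48 hours with galactose, were stained 1 hour at 4 °C with 10% biotinylated, detergent-solubilized Sf9 membrane reagent, enriched on streptavidin microbeads, then FACS-sorted. Anti-HA (expression) and streptavidin (reagent binding) fluorescence set low and high (top ~1%) gates. Polyreactivity labels come from the gate of origin. Genes were colony-PCR amplified, MiSeq 2 × 250 sequenced and filtered by CDR length.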
row,Sequence,polyreactivity (PSR sort gate)
1,QVQLVESGGGLVQAGGSLRLSCAASGGTQRYYAMGWYRQAPGKERDFVASISRSGGSTYYADTVKGRFTISRDNAKNTVYLQMNSLKPEDTAVYYCAAYWSPGYTTRRGYWGQGTQVTVSS,high polyreactivity
2,QVQLVESGGGLVQAGGSLSLSSSASGRTFKGNAMGWYIQAPGKERELVAVITGSGGSTYYADSVKGRFTISRDNAKNTVYLQMNSLKPEDTAVYYCNKKLQRRSWYDYWGQGTQVTVSS,low polyreactivity
3,QVQLVESVGGLVQAGASLRLSCAASGLNIYTYAMGWYRQAPGKERELVAAIRWRGGRTYYADSVNGRFTISRDNAKNTVYLQMNSLKPEDTAVYYCAADYSNLYKSDYWGQGTQVTLSS,low polyreactivity
4,QVQLVESRGGLVQAGGSLRLSCAASGFIFKTNAMGWYRQAPVKERELVAAISNSDGSTYYADSVKGRFTISRDNAKNTVYLQMNSLKPEDTAVYYCAADRTDFWPYDYWGQGTQVTVSS,low polyreactivity
5,QVQLVESGGGLVQAGGSLRLSCAASGSTFRRYAMGWYRQAPGKERELVAAISSSGDSTYYADSVKGRFTISRDNAKNTVYLQMNSLKPEDTAVYYCATRLRQVYRSQSSGYDYWGQGTQVTVSS,low polyreactivity
6,QVQLVESGGGLVQAGGSLRLSCAASGSYLRYYAMGWYRQAAGKERELVAAISRSVTNTYYADSVKGRFTISRDYAKNTVYLQMNSLKPEDTAVDYCARVQYVRNVQYRYGGWYTRYYWGQGTQVTVSS,high polyreactivity
7,QVQLVESGGGLGQAGGSLRLSCAASGFIFGSYAMGWYRQAPGKARELVAAISWSGASTYYADSVKGRFTISRDNAKKTVYLQMNSLIPEDTAVYYCAAVSRYGWYDYWGQGTQVTVSS,high polyreactivity
8,QVQLVESGGGIVQAGGSLRLSCAASGRTLPEYAMGWYIQEPGKERELVAAITSSSGSTYYADSVKVRFTISRDNAKNTVYLQMNSLIPEDTAVYYCAAESESGYHDYDYWGQGTQVTVSS,low polyreactivity
9,QVQHVESVGGLVQAGGSLRLSCAASGSTFGYYAMGWYRQAPGKERELVATISATGGSTYYADSVKGRFTISRDNAKNTVYLQMNSLKPEDTAVYYCNAEYDRGNEYDYWGQGTQVTVSS,low polyreactivity
10,QVQLVESGGGLVQAGGSLRLSCAASGFTFRYYAMGWYRQAPGKERELVASITSGGSTNYADSVKGRFTISRDNAKNTVYLQMNSLKPEDTAVYYCAAQPYKGTGYDYWGQGTQVTVSS,high polyreactivity
11,QVQLVESGGGLVQAGGSHRFRCAASGSTIVSDAMGLYRHAPGKERELDATISWRGGSTYYADSVKGRFTISRDNAKNTVYLQMNSLKPEDTAVYDCAADLWHSQYYYGYEYWGQGTQVNVSS,low polyreactivity
12,QVQLVESGGGLVQAGGSLRLSCAASGRTFPLYAMGWYRQAPGKERELVAAISYICGSTYYADSVKGLFTISRDNAKNTVYLQMNSLKPEDTAVYYCNADYNYAYDYWGQGTQVTVSS,low polyreactivity
13,QVQLVESGGGLVQAGGSLRLSCAASGFIFSYYAMGWYRQAPGKERELVAAISKTGGNTFYADSVKGRFTISRDNAKNTVYLQMNSLKPEDTGVYYCNALRGDWRDMGYWGQGTQVTVSS,high polyreactivity
14,QVQLVESGGGLVQAGGSLRLSCAASGNNFYINAMGSYRQAPGKERELVAAIRGGGSTYYADSVKGRFTISRDNAKNTVYLQMNSLKPEDTAVYYCAARGRRLNPQYRAFGMDYWGQGTQVTVSS,high polyreactivity
15,QVQLVESGGGLVQAGGSLRLSCAASGSIFSYNAMGWYRQAPGKERELVAAINNGGSTYYADSVKGRFTISRDNAKNTVYLQMNSLKPEDTAVYYCNTARRHCQTQGGDYWGQGTQVTVSS,high polyreactivity
16,QVQLVESGGGLVQAGGRLRLSCAASGYTFAGNAMGGYRPAPGKERELVAVITYSGGSTYYADSVKGRFTISRDNAKNTVYLQMNSLKPEDTAVYYCAADWQYSPRMDYWGQGTQVTVSS,low polyreactivity
17,QVQLVESGGGIVQAGGSLRLSCAASGNIFPYYAMRWYRQERGKERELVASISRSGGSTYYADSVKGRFTISRDNAKNTVYLEMNSLKPEDTAVYYCNTLSRSWQMDYWGLGTQVTVSS,low polyreactivity
18,QVQLVESGGGLVQAGGSLSLSCAASGSTFGDYAMGWYRQAPGKERELVAAITSSGGRTFYADSVKGRFTISRDNAKNTVYLQMNSLKPEDHAVYYCAAEFTDPPSEYEYWGQGTQVTVSS,low polyreactivity
19,QVQLQESGGGLVQAGGSLRLSCAASGTISTIEPMGWYRQAPGKERELVACIGAGTITNYADSVKGRFTISRDNDTVYLQMNSLKPEDTAVYYCNADGWYALYEWLAVSGYYWGQGTQVTVSS,low polyreactivity
20,QVQLVESGGGLVQAGGSLRLSCAASGSTFVVNAMGWYRQAPGKERELVAAITQSGGSTFYADSVKGRFTISRDNAKNTVYLQMNSLKPEDTAVYYWGLGTQVTVSS,low polyreactivity
21,QDQLVESGGGLVQAGGSLRLSCAASGSTFSWYAMGWYRQAPGKERELVAAINNRSGSTSYADSVKGRFTISRDNAKNTVYLQMNSLKPEDTAVYYCAAEGTDGLYDWEYDYWGQGTQVTVSS,high polyreactivity
22,QVQLVESGGGLVQAGGSLRLSCAASGNTFNYNAMGWYRQAPGKERELVAAITSSGGSTYYADSVKGRFTISRDYAKNTVYLQMNSLKPDDTAVYYCAADLWQDSYSYWFDYWGQGTQVTVSS,high polyreactivity

row,Sequence,polyreactivity (PSR sort gate)
1,QVQLVESGGGLVQAGGSLRLSCAASGRNFPVNAMGWYRQAPGKERELVAAISTTGARTYYADSVKGRFTISRDNAKNTVYLQMNSLKPEDTAVYYCAAKQFSVTLSNYWGQGTQVTVSS,low polyreactivity
2,QVQLVESGGGLVQAGGSLRLSCAASGSICGKNGMGWYRQAPGKERELVAAITSGGGNTYYADSVKGRFTISRDNAKNTVYLQMNSLKPEDTAVDYCAKGYRAYYWGFNYWGQGTQVTVSS,high polyreactivity
3,QLHLVESGGGLVQAGGSLRLSCAASVSIFNIYAMGWYRQAPGKERELVATITGIADSTYYADSVKGRFTISRDNAKNTVYLQMNSLKPEDTAVYYCAADKYVAEYDYWGQGTQVTVSS,low polyreactivity
4,QVQLVESGGGLVQAGGSLRLSCAASGITFYGNAMGWYRQAPGKERELVAAITASGGRTYYADSVKGRFTISRDNAKNTVYLQMNSLKPEDTAVYYCAAKKATVVYRMEYWGQGTQVTVSS,high polyreactivity
5,QVQLVESGGGLVQAGGSLRLSCAASGFTFRDYAMGWYRQAPGKERELVAAITRGGSTNYADSVKGRFTISRDNAKNTVYLQMNSLKPEDTAVYYCAATPSWRWHVFAEFNSWGQGTQVTVSS,high polyreactivity
6,QVQLVESGGGLVQAGGSLRLSCAASGRIFYRYGMGWYRQAPGKERELVASITRGGSTYYADSVKGRFTISRDNAKNTVYLQMNSLKPEDTAVYYCATKSSAGYDYWGQGTQVTVSS,low polyreactivity
7,QVQLVESGGVLVQAGGSLRLSCAASGFTFQAYTMGWYRQAPVKERELVAAISRSGGRTYYADSVKGRFTISRDNAKNTVYLQMNSLKPEDTAVYYCAKRTTYSDDYWGQGTQVTVSS,high polyreactivity
8,QVQLVESGGGFVQAGGSLRLSCAASGSTFAYYTMGWYRQAPGKERELVAASYGAGGSTYYADSVKGRFTISRDNAKNTVYLQRNSLIPEDTAVYYCNVVVSVHISVSQYDYWGQGTQVTVSS,high polyreactivity
9,QVQLVESGGGLVQAGGSLRLSCAASGRILRPNAMGWYRQAPGKEREMVAAISVSGGRTYYADSVKGRFTISRDNAKNTVYLQMNSLKPEDTAVYYCAAKYKRGYDYWGQGTQVTVSS,high polyreactivity
10,QVQLVESGGGLVQAGGSLRLSCAASGIFFLYGMGWYIQAPGKQRELVAVISTRDTTDYADSVKGRFTISRDKSKNTVNIQMNSLKPEDTAVYFCAATARSRSYSWSKLNYWGQGTQVTLSS,low polyreactivity
11,QVQLVESGGGLVQAGGTLRLSCAASGRIFVYYTMGWYRQAPGKERELVAAITCSGGSTYYADTVKGRFTISRDNEKNPVYLQMNSLKPEDTAVYYCAADGYADYYGWGYWTEYDYWGQGTQVTVSS,low polyreactivity
12,QVQLVESGGGLVQAGGSLRLSCAASGFIFGYNAMGWYRQAPGKEREFVAAISWTGGRTYYADSVKGRFTISRDNAKNTVYLQMNSLKPEDTAVYYCAALRGWLPGTRTRYYYWGQGTQVTVSS,high polyreactivity
13,QVQLVESGGGLVQAGGSLSLSCAASGITFGLYAMGWYRQATGKERELVAAITSGDRTYYADSVKGRFTISRDNAKNTVYLQMISLTPEDTAVNYCNAEAWWVYYYYGTYLAGSYYWGQGTQVTVSS,high polyreactivity
14,QVQLVESGGGLVQAGGSLRLSCAASGGTFGINDMGWYRQAPGKERDLVAAISWSGGDTYYADSVKGRFTISRDNAKNTVYLQRNSLKPEDTAVYYCAADYHYTKSMYYWGQGTQVSVSS,low polyreactivity
15,QVQLVESGGGLLQAGGSLRLSCASSGSTFGGNAMGRYRQAPGKERELVAAITVGGDSTYYADSVKGRFTISRDNAKNTVYLQMNSLKPEDTAVYYCNASNVYFWFVTLEFDYWGQGTQVTVSS,low polyreactivity
16,QVQLVESAGGLVQAGGSLRLSCAASGYIYGYYVMGWNRQAPGKERELVAAISGRGGRTYYADSVKGRFTISRDNAKNTVYLQMNSLKPEDTAVYYCAAADLPGTMYYWGQGTQVTVSS,high polyreactivity
17,QVQLVESGGGLVQAGGSLRLSCAASRSTFVLYDMGWYRPAPGKERELVAAISRSGDSTYYADSVKGRYTISRDNAKNTVYLQMNSLKPEDTAVYYCAAKRRISTGMDYWGQGTQGTVSS,high polyreactivity
18,QVQLVESGGGLVQAGGSLRLSCAASGFIFDPYAMGWYRQAPGKERELVASINTRGDRTSYADSVKGRFTISRDNAKNTVYLQMNSLKPEDTAVYYCNADAVDQVGPDDDYWGQGTQVTVSS,low polyreactivity
19,QVQLVESGGGLVQAGGSLRLAVLPPVLPSTLNDMGWYRQAPGKERELVAAITRGGSTNYADSVKGRFTISRDNAKNTVYLQMNSQKPEDTAVYYCAAPYAGWRDGGDNWGQGTQVTVSS,low polyreactivity
20,QVQLVESGGSLVQAGGSLRLSCAASGYTIDSYGMGWYRQAPGKERELVAPIDWSGGSTYYADSVKGRFTIARDTAKNTVYLQKNSLIPDDSAVYYCNRDSAGPGDVILAYTGNDYWGQGTQVTVSS,low polyreactivity
21,QVQLEEYGGGLVQAGGSLRLSCAAAGFTCGGYAMGWYRQAPGKDRELVATITRVGSTNYADSVKGRFTISRDNAKNTVYLQMNSLKPEDTAVYYCNTRRVYGHGNAPYDSWGQATQVTVSS,low polyreactivity
